The test system of this data set is Escherichia coli TOP10. In words: shrunken log2 fold change of peptide-encoding DNA abundance (4.5 h post-induction vs induction); higher = less antimicrobial activity (less host growth inhibition). The note with it: time post-induction: 4.5 h; library: site-saturation at positions 5, 18, 19, 20.
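Note: peptides expressed intracellularly from a pBAD plasmid library in pooled LB shake-flask culture, induced with 0.3% L-arabinose, DNA abundance read by NGS, three biological replicates, DESeq2 with apeglm shrinkage.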

Turning to RRIRHRPPRLPRPRPRPMSWPRP, the “shrunken log2 fold change” value is -0.106.

Consider RRIRARPPRLPRPRPRPWMPPRP, for which the “shrunken log2 fold change” value is -0.216.

Take RRIRERPPRLPRPRPRPDLKPRP: the “shrunken log2 fold change” value is -0.108.

As to RRIRKRPPRLPRPRPRPTYSPRP, the “shrunken log2 fold change” value was -0.191.

As for RRIRFRPPRLPRPRPRPNMFPRP, the “shrunken log2 fold change” value was -0.259.

For the sequence RRIRYRPPRLPRPRPRPTFPPRP, the “shrunken log2 fold change” value is -0.279.

For the sequence RRIRRRPPRLPRPRPRPAHRPRP, the “shrunken log2 fold change” value is -0.059.

For the sequence RRIRIRPPRLPRPRPRPCQNPRP, the “shrunken log2 fold change” value is -0.282.

Consider RRIRTRPPRLPRPRPRPFQHPRP, for which the “shrunken log2 fold change” value was -0.214.

Consider RRIRRRPPRLPRPRPRPISTPRP, for which the “shrunken log2 fold change” value is -0.0842.

As for RRIRDRPPRLPRPRPRPAGLPRP, the “shrunken log2 fold change” value came to 0.0252.

Consider RRIRKRPPRLPRPRPRPLVLPRP, for which the “shrunken log2 fold change” value is -0.0684.

Turning to RRIRVRPPRLPRPRPRPRPFPRP, the “shrunken log2 fold change” value was found to be 0.351.

RRIRHRPPRLPRPRPRPVICPRP: the “shrunken log2 fold change” value was -0.0717.

Take RRIRNRPPRLPRPRPRPRIMPRP: the “shrunken log2 fold change” value was -0.337.

Take RRIRARPPRLPRPRPRPETMPRP: the “shrunken log2 fold change” value was 0.0902.

In the case of RRIRHRPPRLPRPRPRPHKEPRP, the “shrunken log2 fold change” value is -0.00832.

With RRIRFRPPRLPRPRPRPQMCPRP, the “shrunken log2 fold change” value was -0.119.

With RRIRDRPPRLPRPRPRPCYHPRP, the “shrunken log2 fold change” value was -0.019.

RRIRYRPPRLPRPRPRPDYMPRP: the “shrunken log2 fold change” value was -0.761.

Consider RRIRERPPRLPRPRPRPTGTPRP, for which the “shrunken log2 fold change” value was -0.0482.

With RRIRSRPPRLPRPRPRPYTSPRP, the “shrunken log2 fold change” value is -0.14.

Take RRIRQRPPRLPRPRPRPQRPPRP: the “shrunken log2 fold change” value turned out to be 0.0996.

As for RRIRYRPPRLPRPRPRPYAQPRP, the “shrunken log2 fold change” value was -1.36.

In the case of RRIRERPPRLPRPRPRPHRTPRP, the “shrunken log2 fold change” value was -5.56e-05.

Regarding RRIRARPPRLPRPRPRPMKLPRP, the “shrunken log2 fold change” value was determined as 0.0594.

In the case of RRIRVRPPRLPRPRPRPGRTPRP, the “shrunken log2 fold change” value was 0.117.

Take RRIRTRPPRLPRPRPRPINCPRP: the “shrunken log2 fold change” value came out at 0.00543.

With RRIRRRPPRLPRPRPRPINDPRP, the “shrunken log2 fold change” value was -0.219.

As for RRIRHRPPRLPRPRPRPNEDPRP, the “shrunken log2 fold change” value was -0.081.

Consider RRIRSRPPRLPRPRPRPEYWPRP, for which the “shrunken log2 fold change” value was found to be 0.191.

In the case of RRIRCRPPRLPRPRPRPIHLPRP, the “shrunken log2 fold change” value is -0.193.

Turning to RRIRHRPPRLPRPRPRPNKWPRP, the “shrunken log2 fold change” value was -0.0964.

Turning to RRIRVRPPRLPRPRPRPYDPPRP, the “shrunken log2 fold change” value is -0.468.

Take RRIRNRPPRLPRPRPRPDEVPRP: the “shrunken log2 fold change” value is -0.00973.

Regarding RRIRWRPPRLPRPRPRPHQYPRP, the “shrunken log2 fold change” value is -0.29.

In the case of RRIRQRPPRLPRPRPRPCAEPRP, the “shrunken log2 fold change” value was -0.135.

Consider RRIRNRPPRLPRPRPRPECKPRP, for which the “shrunken log2 fold change” value was found to be 0.0615.

Turning to RRIRLRPPRLPRPRPRPNYGPRP, the “shrunken log2 fold change” value was -0.0135.

Regarding RRIRWRPPRLPRPRPRPITTPRP, the “shrunken log2 fold change” value was 0.0992.

RRIRSRPPRLPRPRPRPTCNPRP: the “shrunken log2 fold change” value was found to be 0.0589.

For the sequence RRIRYRPPRLPRPRPRPPHIPRP, the “shrunken log2 fold change” value is -0.808.

As for RRIRNRPPRLPRPRPRPYPEPRP, the “shrunken log2 fold change” value is -1.11.

Turning to RRIRFRPPRLPRPRPRPTCVPRP, the “shrunken log2 fold change” value is -0.0732.

As for RRIRIRPPRLPRPRPRPCVTPRP, the “shrunken log2 fold change” value was -0.22.

Take RRIRQRPPRLPRPRPRPNTGPRP: the “shrunken log2 fold change” value is -0.766.

Consider RRIRLRPPRLPRPRPRPACNPRP, for which the “shrunken log2 fold change” value was -0.191.

Consider RRIRERPPRLPRPRPRPAHRPRP, for which the “shrunken log2 fold change” value was 0.0394.

Regarding RRIRSRPPRLPRPRPRPEDRPRP, the “shrunken log2 fold change” value is 0.972.

Consider RRIRKRPPRLPRPRPRPCIGPRP, for which the “shrunken log2 fold change” value is 0.0382.

On to RRIRQRPPRLPRPRPRPTWRPRP, for which the “shrunken log2 fold change” value turned out to be 0.345.

Turning to RRIRDRPPRLPRPRPRPHFFPRP, the “shrunken log2 fold change” value came to 0.152.

Take RRIRVRPPRLPRPRPRPKHTPRP: the “shrunken log2 fold change” value was -0.177.

As to RRIRLRPPRLPRPRPRPAWSPRP, the “shrunken log2 fold change” value is 0.103.

With RRIRMRPPRLPRPRPRPRSWPRP, the “shrunken log2 fold change” value came out at 1.42.

RRIRIRPPRLPRPRPRPATIPRP: the “shrunken log2 fold change” value is -0.201.

For RRIRFRPPRLPRPRPRPWWMPRP, the “shrunken log2 fold change” value was -0.168.

With RRIRNRPPRLPRPRPRPPAKPRP, the “shrunken log2 fold change” value was determined as 0.521.

In the case of RRIRPRPPRLPRPRPRPAIDPRP, the “shrunken log2 fold change” value is 1.19.

For the sequence RRIRPRPPRLPRPRPRPGPNPRP, the “shrunken log2 fold change” value was 0.51.

As for RRIRGRPPRLPRPRPRPHIFPRP, the “shrunken log2 fold change” value turned out to be 0.224.

Regarding RRIRMRPPRLPRPRPRPSIAPRP, the “shrunken log2 fold change” value is -0.0688.

Take RRIRERPPRLPRPRPRPIMRPRP: the “shrunken log2 fold change” value was -0.102.

Turning to RRIRHRPPRLPRPRPRPTNWPRP, the “shrunken log2 fold change” value is 0.0467.

In the case of RRIRKRPPRLPRPRPRPRDPPRP, the “shrunken log2 fold change” value worked out at 1.06.

With RRIRRRPPRLPRPRPRPKVYPRP, the “shrunken log2 fold change” value is -0.0919.

For the sequence RRIRLRPPRLPRPRPRPNKHPRP, the “shrunken log2 fold change” value is -0.43.

Turning to RRIRLRPPRLPRPRPRPPMEPRP, the “shrunken log2 fold change” value came out at 0.347.

Take RRIRWRPPRLPRPRPRPNMMPRP: the “shrunken log2 fold change” value is 0.00802.

RRIRIRPPRLPRPRPRPKGNPRP: the “shrunken log2 fold change” value is -0.459.

Consider RRIRARPPRLPRPRPRPYSIPRP, for which the “shrunken log2 fold change” value is -0.374.

For the sequence RRIRPRPPRLPRPRPRPNRSPRP, the “shrunken log2 fold change” value was 0.16.

On to RRIRLRPPRLPRPRPRPTMGPRP, for which the “shrunken log2 fold change” value turned out to be 0.147.

In the case of RRIRWRPPRLPRPRPRPENPPRP, the “shrunken log2 fold change” value was -0.0117.

With RRIRWRPPRLPRPRPRPWSTPRP, the “shrunken log2 fold change” value came to 0.374.

Consider RRIRNRPPRLPRPRPRPLPKPRP, for which the “shrunken log2 fold change” value came to 0.402.

On to RRIRCRPPRLPRPRPRPPYSPRP, for which the “shrunken log2 fold change” value was -0.798.

Regarding RRIRQRPPRLPRPRPRPGTGPRP, the “shrunken log2 fold change” value is -0.121.

With RRIRTRPPRLPRPRPRPDGKPRP, the “shrunken log2 fold change” value was -0.41.

As for RRIRIRPPRLPRPRPRPIIIPRP, the “shrunken log2 fold change” value is -0.598.

Turning to RRIRARPPRLPRPRPRPTEDPRP, the “shrunken log2 fold change” value turned out to be 0.269.

On to RRIRPRPPRLPRPRPRPHVVPRP, for which the “shrunken log2 fold change” value was -0.136.

Regarding RRIRERPPRLPRPRPRPFPFPRP, the “shrunken log2 fold change” value is -0.629.

As to RRIRRRPPRLPRPRPRPTAMPRP, the “shrunken log2 fold change” value came out at 0.78.

Take RRIRDRPPRLPRPRPRPTMPPRP: the “shrunken log2 fold change” value was -0.121.

Take RRIRNRPPRLPRPRPRPGWVPRP: the “shrunken log2 fold change” value was 0.282.

With RRIRERPPRLPRPRPRPQAQPRP, the “shrunken log2 fold change” value is -0.0773.

RRIRNRPPRLPRPRPRPHRDPRP: the “shrunken log2 fold change” value is -0.0417.

In the case of RRIRLRPPRLPRPRPRPDTGPRP, the “shrunken log2 fold change” value was -0.243.

Regarding RRIRCRPPRLPRPRPRPENPPRP, the “shrunken log2 fold change” value was -0.0628.

Consider RRIRPRPPRLPRPRPRPNFCPRP, for which the “shrunken log2 fold change” value turned out to be 0.257.

The values are drawn from the supplement of paper PMC9112550, “Optimization of the antimicrobial peptide Bac7 by deep mutational scanning” (BMC Biology, 2022).
